B1: PTH1R-WT coupled to a C-terminal HaloTag (parathyroid hormone 1 receptor) [not stated] / β-arrestin2 WT C-terminally fused to Nanoluciferase [not stated] (parent)
chain 1: MGEKPGTRVFKKSSPNCKLTVYLGKRDFVDHLDKVDPVDGVVLVDPDYLKDRKVFVTLTCAFRYGREDLDVLGLSFRKDLFIANYQAFPPTPNPPRPPTRLQERLLRKLGQHAHPFFFTIPQNLPCSVTLQPGPEDTGKACGVDFEIRAFCAKSLEEKSHKRNSVRLVIRKVQFAPEKPGPQPSAETTRHFLMSDRSLHLEASLDKELYYHGEPLNVNVHVTNNSTKTVKKIKVSVRQYADICLFSTAQYKCPVAQVEQDDQVSPSSTFCKVYTITPLLSNNREKRGLALDGKLKHEDTNLASSTIVKEGANKEVLGILVSYRVKVKLVVSRGGDVSVELPFVLMHPKPHDHIALPRPQSAATHPPTLLPSAVPETDAPVDTNLIEFETNYATDDDIVFEDFARLRLKGLKDEDYDDQFC
chain 2: DADDVMTKEEQIFLLHRAQAQCEKRLKEVLQRPASIMESDKGWTSASTSGKPRKDKASGKLYPESEEDKEAPTGSRYRGRPCLPEWDHILCWPLGAPGEVVAVPCPDYIYDFNHKGHAYRRCDRNGSWELVPGHNRTWANYSECVKFLTNETREREVFDRLGMIYTVGYSVSLASLTVAVLILAYFRRLHCTRNYIHMHLFLSFMLRAVSIFVKDAVLYSGATLDEAERLTEEELRAIAQAPPPPATAAAGYAGCRVAVTFFLYFLATNYYWILVEGLYLHSLIFMAFFSEKKYLWGFTVFGWGLPAVFVAVWVSVRATLANTGCWDLSSGNKKWIIQVPILASIVLNFILFINIVRVLATKLRETNAGRCDTRQQYRKLLKSTLVLMPLFGVHYIVFMATPYTEVSGTLWQVQMHYEMLFNSFQGFFVAIIYCFCNGEVQAEIKKSWSRWTLALDFKRKARSGSSSYSYGPMVSHTSVTNVGPRVGLGLPLSPRLLPTATTNGHPQLPGHAKPGTPALETLETTPPAMAAPKDDGFLNGSCSGLDEEASGPERPPALLQEEWETVM
B2: PTH1R-WT coupled to a C-terminal HaloTag (parathyroid hormone 1 receptor) [not stated] / β-arrestin1 WT C-terminally fused to Nanoluciferase [not stated] (parent)
chain 1: MGDKGTRVFKKASPNGKLTVYLGKRDFVDHIDLVDPVDGVVLVDPEYLKERRVYVTLTCAFRYGREDLDVLGLTFRKDLFVANVQSFPPAPEDKKPLTRLQERLIKKLGEHAYPFTFEIPPNLPCSVTLQPGPEDTGKACGVDYEVKAFCAENLEEKIHKRNSVRLVIRKVQYAPERPGPQPTAETTRQFLMSDKPLHLEASLDKEIYYHGEPISVNVHVTNNTNKTVKKIKISVRQYADICLFNTAQYKCPVAMEEADDTVAPSSTFCKVYTLTPFLANNREKRGLALDGKLKHEDTNLASSTLLREGANREILGIIVSYKVKVKLVVSRGGLLGDLASSDVAVELPFTLMHPKPKEEPPHREVPENETPVDTNLIELDTNDDDIVFEDFARQRLKGMKDDKEEEEDGTGSPQLNNR
chain 2: B1 chain 2
B3: PTH1R-WT coupled to a C-terminal HaloTag (parathyroid hormone 1 receptor) [not stated] / β-arrestin1-dFLR (finger-loop region Y63 to K77 deleted) C-terminally fused to Nanoluciferase [not stated] (parent)
chain 1: MGDKGTRVFKKASPNGKLTVYLGKRDFVDHIDLVDPVDGVVLVDPEYLKERRVYVTLTCAFRDLFVANVQSFPPAPEDKKPLTRLQERLIKKLGEHAYPFTFEIPPNLPCSVTLQPGPEDTGKACGVDYEVKAFCAENLEEKIHKRNSVRLVIRKVQYAPERPGPQPTAETTRQFLMSDKPLHLEASLDKEIYYHGEPISVNVHVTNNTNKTVKKIKISVRQYADICLFNTAQYKCPVAMEEADDTVAPSSTFCKVYTLTPFLANNREKRGLALDGKLKHEDTNLASSTLLREGANREILGIIVSYKVKVKLVVSRGGLLGDLASSDVAVELPFTLMHPKPKEEPPHREVPENETPVDTNLIELDTNDDDIVFEDFARQRLKGMKDDKEEEEDGTGSPQLNNR
chain 2: B1 chain 2
B4: PTH1R-WT coupled to a C-terminal HaloTag (parathyroid hormone 1 receptor) [not stated] / β-arrestin2-dFLR (finger-loop region Y64 to K78 deleted) C-terminally fused to Nanoluciferase [not stated] (parent)
chain 1: MGEKPGTRVFKKSSPNCKLTVYLGKRDFVDHLDKVDPVDGVVLVDPDYLKDRKVFVTLTCAFRDLFIANYQAFPPTPNPPRPPTRLQERLLRKLGQHAHPFFFTIPQNLPCSVTLQPGPEDTGKACGVDFEIRAFCAKSLEEKSHKRNSVRLVIRKVQFAPEKPGPQPSAETTRHFLMSDRSLHLEASLDKELYYHGEPLNVNVHVTNNSTKTVKKIKVSVRQYADICLFSTAQYKCPVAQVEQDDQVSPSSTFCKVYTITPLLSNNREKRGLALDGKLKHEDTNLASSTIVKEGANKEVLGILVSYRVKVKLVVSRGGDVSVELPFVLMHPKPHDHIALPRPQSAATHPPTLLPSAVPETDAPVDTNLIEFETNYATDDDIVFEDFARLRLKGLKDEDYDDQFC
chain 2: B1 chain 2

The variants in one assay derive from B1. The assay can be described thus: NanoBRET recruitment assay in living cells. The following applies: with β-arrestin2 WT C-terminally fused to Nanoluciferase; HEK-WT + EV; point at the highest PTH(1-34) concentration (about 3 µM); parent: 7.5; read off a plot.
As for chain 2 S463A S465A S466A S467A S469A, the response was found to be 6 fold change.
Still for that read-out and setting: then chain 2 S475A T477A S478A T480A, with 3.4 fold change.

Still in this assay, the particulars now being: with β-arrestin2 WT C-terminally fused to Nanoluciferase; HEK-WT cells; point at the highest PTH(1-34) concentration (about 3 µM); parent: 7.3; read off a plot.
Take chain 2 S463A S465A S466A S467A S469A: the response turned out to be 6 fold change.
As for chain 2 S475A T477A S478A T480A, the response is 3.4 fold change.

Staying with this assay, now noted: with β-arrestin2 WT C-terminally fused to Nanoluciferase; ΔQ-GRK + EV; point at the highest PTH(1-34) concentration (about 3 µM); parent: 1.7; read off a plot.
As for chain 2 S463A S465A S466A S467A S469A, the response amounted to 1.8 fold change.
Turning to chain 2 S475A T477A S478A T480A, the response was determined as 1.9 fold change.

Staying with this assay, now noted: with β-arrestin2 WT C-terminally fused to Nanoluciferase; ΔQ-GRK + GRK2; point at the highest PTH(1-34) concentration (about 3 µM); parent: 5; read off a plot.
Take chain 2 S463A S465A S466A S467A S469A: the response stood at 4.8 fold change.
On to chain 2 S475A T477A S478A T480A, for which the response was found to be 3.2 fold change.

Variants of B2 are the subject of the next assay. Nature of the assay: NanoBRET recruitment assay in living cells. Conditions: with β-arrestin1 WT C-terminally fused to Nanoluciferase; HEK-WT + EV; point at the highest PTH(1-34) concentration (about 3 µM); parent: 5.9; read off a plot.
For chain 2 S463A S465A S466A S467A S469A, the response worked out at 5.8 fold change.
With chain 2 S475A T477A S478A T480A, the response was 2.9 fold change.

Staying with this assay, now noted: with β-arrestin1 WT C-terminally fused to Nanoluciferase; HEK-WT cells; point at the highest PTH(1-34) concentration (about 3 µM); parent: 5.9; read off a plot.
On to chain 2 S463A S465A S466A S467A S469A, for which the response worked out at 5.9 fold change.
Same read-out and setting: under chain 2 S475A T477A S478A T480A stands 2.9 fold change.

Staying with this assay, now noted: with β-arrestin1 WT C-terminally fused to Nanoluciferase; ΔQ-GRK + EV; point at the highest PTH(1-34) concentration (about 3 µM); parent: 1.4; read off a plot.
As for chain 2 S463A S465A S466A S467A S469A, the response is 1.7 fold change.
Consider chain 2 S475A T477A S478A T480A, for which the response stood at 2 fold change.

The assay is the same for the next values; noted with them: with β-arrestin1 WT C-terminally fused to Nanoluciferase; ΔQ-GRK + GRK2; point at the highest PTH(1-34) concentration (about 3 µM); parent: 5.3; read off a plot.
For chain 2 S463A S465A S466A S467A S469A, the response was 6.3 fold change.
Still for that read-out and setting: under chain 2 S475A T477A S478A T480A stands 2.7 fold change.

In another assay the parent is B3. Nature of the assay: NanoBRET recruitment assay in living cells. The following applies: with β-arrestin1-dFLR (finger-loop region Y63 to K77 deleted) C-terminally fused to Nanoluciferase; HEK-WT + EV; point at the highest PTH(1-34) concentration (about 3 µM); partner is β-arrestin1-dFLR; parent: 2.8; read off a plot.
chain 2 S475A T477A S478A T480A: the response turned out to be 1.1 fold change.
Consider chain 2 S463A S465A S466A S467A S469A, for which the response came to 2.6 fold change.

The same assay, now with this note: with β-arrestin1-dFLR (finger-loop region Y63 to K77 deleted) C-terminally fused to Nanoluciferase; ΔQ-GRK + EV; point at the highest PTH(1-34) concentration (about 3 µM); partner is β-arrestin1-dFLR; parent: 1; read off a plot.
In the case of chain 2 S475A T477A S478A T480A, the response is 1 fold change.
chain 2 S463A S465A S466A S467A S469A: the response was 1 fold change.

Still in this assay, the particulars now being: with β-arrestin1-dFLR (finger-loop region Y63 to K77 deleted) C-terminally fused to Nanoluciferase; ΔQ-GRK + GRK2; point at the highest PTH(1-34) concentration (about 3 µM); partner is β-arrestin1-dFLR; parent: 2.3; read off a plot.
With chain 2 S475A T477A S478A T480A, the response worked out at 1.1 fold change.
Same read-out and setting: then chain 2 S463A S465A S466A S467A S469A, with 2.1 fold change.

In another assay the parent is B4. Nature of the assay: NanoBRET recruitment assay in living cells. The following applies: with β-arrestin2-dFLR (finger-loop region Y64 to K78 deleted) C-terminally fused to Nanoluciferase; HEK-WT + EV; point at the highest PTH(1-34) concentration (about 3 µM); partner is β-arrestin2-dFLR; parent: 1.4; read off a plot.
Take chain 2 S475A T477A S478A T480A: the response worked out at 0.95 fold change.
For chain 2 S463A S465A S466A S467A S469A, the response was 1.4 fold change.

Staying with this assay, now noted: with β-arrestin2-dFLR (finger-loop region Y64 to K78 deleted) C-terminally fused to Nanoluciferase; ΔQ-GRK + EV; point at the highest PTH(1-34) concentration (about 3 µM); partner is β-arrestin2-dFLR; parent: 1; read off a plot.
Regarding chain 2 S475A T477A S478A T480A, the response stood at 0.95 fold change.
On the same count and under the same terms, under chain 2 S463A S465A S466A S467A S469A stands 1 fold change.

The same assay, now with this note: with β-arrestin2-dFLR (finger-loop region Y64 to K78 deleted) C-terminally fused to Nanoluciferase; ΔQ-GRK + GRK2; point at the highest PTH(1-34) concentration (about 3 µM); partner is β-arrestin2-dFLR; parent: 1.3; read off a plot.
Consider chain 2 S475A T477A S478A T480A, for which the response was 0.95 fold change.
On to chain 2 S463A S465A S466A S467A S469A, for which the response is 1.3 fold change.
